US20120177639A1

Key:
[1] = target: protofibrils prepared from the synthetic peptide Aβ (1-42) (UniProt P05067); assay: ELISA; ratio of the EC50 on low-molecular-weight oligomers to the EC50 on protofibrils
[2] = target: low-molecular-weight oligomers of Aβ (1-42) (UniProt P05067); assay: ELISA, antigen coated at 1 µg/ml, anti-human Fc peroxidase detection
[3] = target: protofibrils prepared from the synthetic peptide Aβ (1-42) (UniProt P05067); assay: as above

LMW/PF [1]	EC50 [2] [µg/mL]	EC50 [3] [µg/mL]	Binder
705	41.4	0.0587	humanized antibody LP09026 (antibody, human IgG4 S228P, kappa, V domains shown) VH: EVQLQQSGPEVVKPGVSVKISCKGSGYTFTDYAMHWVKQSPGKSLEWIGVISTKYGKTNYNPSFQGQATMTVDKSSSTAYMELASLKASDSAIYYCARGDEGYSWGQGTSVTVSS VL: EIVMTQTPLSLPVSLGDRASISCRSGQSLVHSNTNTYLHWYLQKPGQSPKLLIYTVSNRFSGVPDRFSGSGSGSDFTLTISRVEAEDLGVYFCSQNTFVPWTFGGGTKLEIKR
244	21.8	0.0892	humanized antibody LP09028 (antibody, human IgG4 S228P, kappa, V domains shown) VH: EVQLQQSGPEVVKPGVSVKISCKGSGYTFTDYAMHWVKQSPGKSLEWIGVISTKYGKTNYNPSFQGQATMTVDKSSSTAYMELASLKASDSAIYYCARGDDGYSWGQGTSVTVSS VL: EIVMTQTPLSLPVSLGDRASISCRSGQSLVHSNTNTYLHWYLQKPGQSPKLLIYTVSNRFSGVPDRFSGSGSGSDFTLTISRVEAEDLGVYFCSQNTFVPWTFGGGTKLEIKR
184	14.7	0.0798	humanized anti-peptide Aβ antibody VH1VL1 (LP09027) (antibody, human IgG4 S228P, kappa, V domains shown) VH: EVQLQQSGPEVVKPGVSVKISCKGSGYTFTDYAMHWVKQSPGKSLEWIGVISTKYGKTNYNPSFQGQATMTVDKSSSTAYMELASLKASDSAIYYCARGDDGYSWGQGTSVTVSS VL: EIVMTQTPLSLPVSLGDRASISCRSGQSLVHSNGNTYLHWYLQKPGQSPKLLIYTVSNRFSGVPDRFSGSGSGSDFTLTISRVEAEDLGVYFCSQNTFVPWTFGGGTKLEIKR
